From patent US20210115146A1 come the findings set out here.

Test [1] addresses Macaca fascicularis EGFR (cell surface) (Macaca fascicularis). As to the kind of experiment: FACS binding to W562-CHO-K1.cPro1.H6 cells (monkey EGFR), lower panel and table; EC50 cell reads N/A, curve flat. (In flow cytometry, cells or beads pass a laser one at a time.)
Test [2] addresses human EGFR (cell surface) (human) (UniProt P00533). As to the kind of experiment: FACS competition on A431 cells, blocked ligand EGF-biotin, MFI is the EGF-biotin signal; lower panel and table; IC50 cell reads N/A, no inhibition.
The target is the same in test [3]. As to the kind of experiment: FACS binding to A431 cells, lower panel and table; the curve is flat at the baseline, so this is the fit of a flat curve (see non_binding).
Test [4] addresses Macaca fascicularis EGFR (cell surface) (Macaca fascicularis). As to the kind of experiment: FACS binding to W562.CHOK1.cPro1.H6 cells (monkey EGFR), upper panel and table; the curve is flat at the baseline, so this is the fit of a flat curve (see non_binding).
For test [5], the target named is human EGFR (cell surface) (human) (UniProt P00533). As to the kind of experiment: FACS binding to A431 cells, lower panel and table; curve flat.
Test [6] deals with mouse EGFR (cell surface) (mouse) (UniProt Q01279). As to the kind of experiment: FACS binding to W562-CHO-K1.mPro1.F3 cells (mouse EGFR), lower panel and table; EC50 cell reads N/A, curve flat.
The target is the same in test [7]. As to the kind of experiment: FACS binding to mouse EGFR cells; the table head prints W562.CHOK1.cPro1.H6; EC50 cell reads N/A, curve flat.
Test [8] addresses human EGFR (cell surface) (human) (UniProt P00533). As to the kind of experiment: FACS competition on A431 cells, blocked ligand EGF-biotin, MFI is the EGF-biotin signal; upper panel and table; IC50 cell reads N/A, no inhibition.
The target in test [9] is Macaca fascicularis EGFR (cell surface) (Macaca fascicularis). As to the kind of experiment: FACS binding to W562.CHOK1.cPro1.H6 cells (monkey EGFR), upper panel and table; curve flat.
Test [10] has as its target human EGFR (cell surface) (human) (UniProt P00533). As to the kind of experiment: FACS binding to A431 cells, upper panel and table; EC50 cell reads N/A, curve flat.

For the substance Isotype (antibody), the TOP MFI in test [1] was 54.9 MFI; in [5], 58.5 MFI; in test [6], 85.6 MFI. In addition, the Bottom MFI in test [2] was 3890 MFI; in test [8], 4680 MFI. Also, the results for the concentration giving a half-maximal response (EC50) in [3] and in test [4] were 0.01 nM and 0.07 nM, respectively. Further, the Top MFI is 32.3 MFI in [7], 35.6 MFI in test [9] and 35.1 MFI in test [10].

The term EC50 denotes the midpoint of the concentration-response curve.
